Data taken from publication PMC3706991.

Legend:
[1] = molecular target: CD27 (human (endogenous in CD4+ T cells of blood donors)) (UniProt P26842)
[2] = molecular target: CD27 (human (endogenous in CD4+ T cells of blood donors)) (UniProt P26842); remark: listed apart in the source

Chain of UniProt P26842 (P26842 20-260): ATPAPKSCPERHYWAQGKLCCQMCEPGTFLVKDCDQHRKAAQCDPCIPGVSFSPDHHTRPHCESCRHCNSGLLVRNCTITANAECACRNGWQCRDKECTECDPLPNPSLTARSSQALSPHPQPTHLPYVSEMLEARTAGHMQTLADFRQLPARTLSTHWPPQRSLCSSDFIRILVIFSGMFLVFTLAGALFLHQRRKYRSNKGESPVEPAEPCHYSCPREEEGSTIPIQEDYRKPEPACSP

- decrease in FasL expression level on CD4+ T cells (FACS) in co-culture with HB1.F3 after addition of anti-CD27 mAb [1]: 50%
- HB1.F3 (NSC)-mediated apoptosis of CD4+ T cells (Annexin V/PI, FACS) in co-culture with anti-CD27 blocking mAb (LG.7F9), 0-1 ug/ml [2]: 50%
- HB1.F3 (NSC)-mediated apoptosis of CD4+ T cells (Annexin V/PI, FACS) in co-culture with anti-CD70 blocking mAb (BU69), 0-1 ug/ml [2]: 50%
B1: CD70 (ligand)
chain: MPEEGSGCSVRRRPYGCVLRAALVPLVAGLVICLVVCIQRFAQAQQQLPLESLGWDVAELQLNHTGPQQDPRLYWQGGPALGRSFLHGPELDKGQLRIHRDGIYMVHIQVTLAICSSTTASRHHPTTLAVGICSPASRSISLLRLSFHQGCTIASQRLTPLARGDTLCTNLTGTLLPSRNTDETFFGVQWVRP
